Results taken from US20230357348A1 (AstraZeneca / MedImmune, published 2023).
Starred links: 1 amine or outer side, 2 acyl side, 3 side chain; linkers in the order of their positions; H or OH if unused. Non-standard residues stand in square brackets, D forms with d. Groups on a side chain read outwards from the residue. No end group written: not given here. *: point of attachment. C20 diacid = O=C(O)CCCCCCCCCCCCCCCCCCC(=O)*; C18 diacid = O=C(O)CCCCCCCCCCCCCCCCC(=O)*; γGlu = O=C(O)[C@H](CCC(=O)[*:2])N[*:1]; αMeF = C[C@](N)(Cc1ccccc1)C(=O)O; AEEA = NCCOCCOCC(=O)O; Aib = CC(C)(N)C(=O)O

Assays:
[1] = target: human GLP-1 receptor (hGLP-1R) (human, UniProt P43220 24-463); test: cell-based or functional assay
[2] = target: human glucagon receptor (hGCGR) (human, UniProt P47871 26-477); test: cell-based or functional assay
Chain of human glucagon receptor (hGCGR) (P47871 26-477): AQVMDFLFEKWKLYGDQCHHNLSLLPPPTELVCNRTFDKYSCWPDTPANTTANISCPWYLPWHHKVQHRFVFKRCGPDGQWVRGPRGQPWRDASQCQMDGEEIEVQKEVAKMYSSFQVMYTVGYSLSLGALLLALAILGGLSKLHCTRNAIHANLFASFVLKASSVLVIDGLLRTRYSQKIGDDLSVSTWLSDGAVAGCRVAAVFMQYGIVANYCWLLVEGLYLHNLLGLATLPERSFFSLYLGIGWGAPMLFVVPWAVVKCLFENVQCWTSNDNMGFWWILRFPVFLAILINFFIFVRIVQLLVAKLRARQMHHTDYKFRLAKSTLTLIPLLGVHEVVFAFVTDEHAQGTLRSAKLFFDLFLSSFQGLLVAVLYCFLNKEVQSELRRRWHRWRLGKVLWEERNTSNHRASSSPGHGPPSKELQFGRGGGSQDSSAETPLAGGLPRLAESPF

hGLP-1R EC50 (pM) [1] [pM] | hGluc-R EC50 (pM) [2] [pM] | Binder
67.9 | 2800 | H[Aib]QGTFTSDVSK[αMeF]LESK([AEEA-AEEA-γGlu-C20 diacid])RAQDFVRWLVE[Aib]G-NH2 (N-terminus assumed; SMILES CC(C)C[C@H](NC(=O)[C@H](Cc1c[nH]c2ccccc12)NC(=O)[C@H](CCCNC(=N)N)NC(=O)[C@@H](NC(=O)[C@H](Cc1ccccc1)NC(=O)[C@H](CC(=O)O)NC(=O)[C@H](CCC(N)=O)NC(=O)[C@H](C)NC(=O)[C@H](CCCNC(=N)N)NC(=O)[C@H](CCCCNC(=O)COCCOCCNC(=O)COCCOCCNC(=O)CC[C@H](NC(=O)CCCCCCCCCCCCCCCCCCC(=O)O)C(=O)O)NC(=O)[C@H](CO)NC(=O)[C@H](CCC(=O)O)NC(=O)[C@H](CC(C)C)NC(=O)[C@](C)(Cc1ccccc1)NC(=O)[C@H](CCCCN)NC(=O)[C@H](CO)NC(=O)[C@@H](NC(=O)[C@H](CC(=O)O)NC(=O)[C@H](CO)NC(=O)[C@@H](NC(=O)[C@H](Cc1ccccc1)NC(=O)[C@@H](NC(=O)CNC(=O)[C@H](CCC(N)=O)NC(=O)C(C)(C)NC(=O)[C@@H](N)Cc1c[nH]cn1)[C@@H](C)O)[C@@H](C)O)C(C)C)C(C)C)C(=O)N[C@H](C(=O)N[C@@H](CCC(=O)O)C(=O)NC(C)(C)C(=O)NCC(N)=O)C(C)C) [Peptide 508]
162 | 149 | H[Aib]QGTFTSDVSK[αMeF]LDTK([AEEA-AEEA-γGlu-C20 diacid])RARDFVAWLLE[Aib]G-OH (N-terminus assumed; SMILES CC(C)C[C@H](NC(=O)[C@H](Cc1c[nH]c2ccccc12)NC(=O)[C@H](C)NC(=O)[C@@H](NC(=O)[C@H](Cc1ccccc1)NC(=O)[C@H](CC(=O)O)NC(=O)[C@H](CCCNC(=N)N)NC(=O)[C@H](C)NC(=O)[C@H](CCCNC(=N)N)NC(=O)[C@H](CCCCNC(=O)COCCOCCNC(=O)COCCOCCNC(=O)CC[C@H](NC(=O)CCCCCCCCCCCCCCCCCCC(=O)O)C(=O)O)NC(=O)[C@@H](NC(=O)[C@H](CC(=O)O)NC(=O)[C@H](CC(C)C)NC(=O)[C@](C)(Cc1ccccc1)NC(=O)[C@H](CCCCN)NC(=O)[C@H](CO)NC(=O)[C@@H](NC(=O)[C@H](CC(=O)O)NC(=O)[C@H](CO)NC(=O)[C@@H](NC(=O)[C@H](Cc1ccccc1)NC(=O)[C@@H](NC(=O)CNC(=O)[C@H](CCC(N)=O)NC(=O)C(C)(C)NC(=O)[C@@H](N)Cc1c[nH]cn1)[C@@H](C)O)[C@@H](C)O)C(C)C)[C@@H](C)O)C(C)C)C(=O)N[C@@H](CC(C)C)C(=O)N[C@@H](CCC(=O)O)C(=O)NC(C)(C)C(=O)NCC(=O)O) [Peptide 506]
42.1 | 191 | H[Aib]QGTFTSDVSK[αMeF]LDTK([AEEA-AEEA-γGlu-C20 diacid])RAQDFVQWLLE[Aib]K-NH2 (N-terminus assumed; SMILES CC(C)C[C@H](NC(=O)[C@H](Cc1c[nH]c2ccccc12)NC(=O)[C@H](CCC(N)=O)NC(=O)[C@@H](NC(=O)[C@H](Cc1ccccc1)NC(=O)[C@H](CC(=O)O)NC(=O)[C@H](CCC(N)=O)NC(=O)[C@H](C)NC(=O)[C@H](CCCNC(=N)N)NC(=O)[C@H](CCCCNC(=O)COCCOCCNC(=O)COCCOCCNC(=O)CC[C@H](NC(=O)CCCCCCCCCCCCCCCCCCC(=O)O)C(=O)O)NC(=O)[C@@H](NC(=O)[C@H](CC(=O)O)NC(=O)[C@H](CC(C)C)NC(=O)[C@](C)(Cc1ccccc1)NC(=O)[C@H](CCCCN)NC(=O)[C@H](CO)NC(=O)[C@@H](NC(=O)[C@H](CC(=O)O)NC(=O)[C@H](CO)NC(=O)[C@@H](NC(=O)[C@H](Cc1ccccc1)NC(=O)[C@@H](NC(=O)CNC(=O)[C@H](CCC(N)=O)NC(=O)C(C)(C)NC(=O)[C@@H](N)Cc1c[nH]cn1)[C@@H](C)O)[C@@H](C)O)C(C)C)[C@@H](C)O)C(C)C)C(=O)N[C@@H](CC(C)C)C(=O)N[C@@H](CCC(=O)O)C(=O)NC(C)(C)C(=O)N[C@@H](CCCCN)C(N)=O) [Peptide 505]
124 | 551 | H[Aib]QGTFTSDVSK[αMeF]LESK([AEEA-AEEA-γGlu-C20 diacid])RAQDFVRWLLE[Aib]K-OH (N-terminus assumed; SMILES CC(C)C[C@H](NC(=O)[C@H](Cc1c[nH]c2ccccc12)NC(=O)[C@H](CCCNC(=N)N)NC(=O)[C@@H](NC(=O)[C@H](Cc1ccccc1)NC(=O)[C@H](CC(=O)O)NC(=O)[C@H](CCC(N)=O)NC(=O)[C@H](C)NC(=O)[C@H](CCCNC(=N)N)NC(=O)[C@H](CCCCNC(=O)COCCOCCNC(=O)COCCOCCNC(=O)CC[C@H](NC(=O)CCCCCCCCCCCCCCCCCCC(=O)O)C(=O)O)NC(=O)[C@H](CO)NC(=O)[C@H](CCC(=O)O)NC(=O)[C@H](CC(C)C)NC(=O)[C@](C)(Cc1ccccc1)NC(=O)[C@H](CCCCN)NC(=O)[C@H](CO)NC(=O)[C@@H](NC(=O)[C@H](CC(=O)O)NC(=O)[C@H](CO)NC(=O)[C@@H](NC(=O)[C@H](Cc1ccccc1)NC(=O)[C@@H](NC(=O)CNC(=O)[C@H](CCC(N)=O)NC(=O)C(C)(C)NC(=O)[C@@H](N)Cc1c[nH]cn1)[C@@H](C)O)[C@@H](C)O)C(C)C)C(C)C)C(=O)N[C@@H](CC(C)C)C(=O)N[C@@H](CCC(=O)O)C(=O)NC(C)(C)C(=O)N[C@@H](CCCCN)C(=O)O) [Peptide 504]
82.1 | 175 | H[Aib]QGTFTSDVSK[αMeF]LDTK([AEEA-AEEA-γGlu-C20 diacid])RARDFVQWLLR[Aib]A-OH (N-terminus assumed; SMILES CC(C)C[C@H](NC(=O)[C@H](Cc1c[nH]c2ccccc12)NC(=O)[C@H](CCC(N)=O)NC(=O)[C@@H](NC(=O)[C@H](Cc1ccccc1)NC(=O)[C@H](CC(=O)O)NC(=O)[C@H](CCCNC(=N)N)NC(=O)[C@H](C)NC(=O)[C@H](CCCNC(=N)N)NC(=O)[C@H](CCCCNC(=O)COCCOCCNC(=O)COCCOCCNC(=O)CC[C@H](NC(=O)CCCCCCCCCCCCCCCCCCC(=O)O)C(=O)O)NC(=O)[C@@H](NC(=O)[C@H](CC(=O)O)NC(=O)[C@H](CC(C)C)NC(=O)[C@](C)(Cc1ccccc1)NC(=O)[C@H](CCCCN)NC(=O)[C@H](CO)NC(=O)[C@@H](NC(=O)[C@H](CC(=O)O)NC(=O)[C@H](CO)NC(=O)[C@@H](NC(=O)[C@H](Cc1ccccc1)NC(=O)[C@@H](NC(=O)CNC(=O)[C@H](CCC(N)=O)NC(=O)C(C)(C)NC(=O)[C@@H](N)Cc1c[nH]cn1)[C@@H](C)O)[C@@H](C)O)C(C)C)[C@@H](C)O)C(C)C)C(=O)N[C@@H](CC(C)C)C(=O)N[C@@H](CCCNC(=N)N)C(=O)NC(C)(C)C(=O)N[C@@H](C)C(=O)O) [Peptide 502]
102 | 101 | H[Aib]QGTFTSDVSK[αMeF]LDTK([AEEA-AEEA-γGlu-C20 diacid])RAQDFVQWLLR[Aib]A-OH (N-terminus assumed; SMILES CC(C)C[C@H](NC(=O)[C@H](Cc1c[nH]c2ccccc12)NC(=O)[C@H](CCC(N)=O)NC(=O)[C@@H](NC(=O)[C@H](Cc1ccccc1)NC(=O)[C@H](CC(=O)O)NC(=O)[C@H](CCC(N)=O)NC(=O)[C@H](C)NC(=O)[C@H](CCCNC(=N)N)NC(=O)[C@H](CCCCNC(=O)COCCOCCNC(=O)COCCOCCNC(=O)CC[C@H](NC(=O)CCCCCCCCCCCCCCCCCCC(=O)O)C(=O)O)NC(=O)[C@@H](NC(=O)[C@H](CC(=O)O)NC(=O)[C@H](CC(C)C)NC(=O)[C@](C)(Cc1ccccc1)NC(=O)[C@H](CCCCN)NC(=O)[C@H](CO)NC(=O)[C@@H](NC(=O)[C@H](CC(=O)O)NC(=O)[C@H](CO)NC(=O)[C@@H](NC(=O)[C@H](Cc1ccccc1)NC(=O)[C@@H](NC(=O)CNC(=O)[C@H](CCC(N)=O)NC(=O)C(C)(C)NC(=O)[C@@H](N)Cc1c[nH]cn1)[C@@H](C)O)[C@@H](C)O)C(C)C)[C@@H](C)O)C(C)C)C(=O)N[C@@H](CC(C)C)C(=O)N[C@@H](CCCNC(=N)N)C(=O)NC(C)(C)C(=O)N[C@@H](C)C(=O)O) [Peptide 500]
52.9 | 86.6 | H[Aib]QGTFTSDVSK[αMeF]LDTK([AEEA-AEEA-γGlu-C20 diacid])RARDFVAWLLE[Aib]G-NH2 [Peptide 507]
81.2 | 84.9 | H[Aib]QGTFTSDVSK[αMeF]LDTK([AEEA-AEEA-γGlu-C20 diacid])RAQDFVRWLLE[Aib]K-OH [Peptide 503]
26.5 | 75.6 | H[Aib]QGTFTSDVSK[αMeF]LDTK([AEEA-AEEA-γGlu-C18 diacid])RARDFVQWLLR[Aib]A-OH (N-terminus assumed; SMILES CC(C)C[C@H](NC(=O)[C@H](Cc1c[nH]c2ccccc12)NC(=O)[C@H](CCC(N)=O)NC(=O)[C@@H](NC(=O)[C@H](Cc1ccccc1)NC(=O)[C@H](CC(=O)O)NC(=O)[C@H](CCCNC(=N)N)NC(=O)[C@H](C)NC(=O)[C@H](CCCNC(=N)N)NC(=O)[C@H](CCCCNC(=O)COCCOCCNC(=O)COCCOCCNC(=O)CC[C@H](NC(=O)CCCCCCCCCCCCCCCCC(=O)O)C(=O)O)NC(=O)[C@@H](NC(=O)[C@H](CC(=O)O)NC(=O)[C@H](CC(C)C)NC(=O)[C@](C)(Cc1ccccc1)NC(=O)[C@H](CCCCN)NC(=O)[C@H](CO)NC(=O)[C@@H](NC(=O)[C@H](CC(=O)O)NC(=O)[C@H](CO)NC(=O)[C@@H](NC(=O)[C@H](Cc1ccccc1)NC(=O)[C@@H](NC(=O)CNC(=O)[C@H](CCC(N)=O)NC(=O)C(C)(C)NC(=O)[C@@H](N)Cc1c[nH]cn1)[C@@H](C)O)[C@@H](C)O)C(C)C)[C@@H](C)O)C(C)C)C(=O)N[C@@H](CC(C)C)C(=O)N[C@@H](CCCNC(=N)N)C(=O)NC(C)(C)C(=O)N[C@@H](C)C(=O)O) [Peptide 501]
